Test results published in patent US20100166764A1 (Eli Lilly, published 2010).
Residue numbers refer to the chain shown, from its start. Names may count otherwise.

T1: mature myostatin (human, murine, rat, chicken, turkey, …, UniProt O08689 268-376 (mouse entry))
T1 sequence: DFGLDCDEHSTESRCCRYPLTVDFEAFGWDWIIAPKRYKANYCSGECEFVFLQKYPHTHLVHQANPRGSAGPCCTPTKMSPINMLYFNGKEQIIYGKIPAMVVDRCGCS

B1: Mab C12 (antibody, V domains shown)
VH: QLQLQESGPGLVKPSETLSLTCTVSGFSLRKVGSSVSWIRQPPGKGLEWIGHIYWDDDKRLNPSLRNRVTISVDTSKNQFSLKLSSVTAADTAVYYCARRAITTVIGGGTFDLWGQGTLVTVSS
VL: DIQMTQSPSSLSASVGDRVTITCSASSSISYMHWYQQKPGKAPKLLIYDTSKLARGVPSRFSGSGSGTDFTLTISSLQPEDFATYYCQQWYLNPLTFGGGTKVEIKR
B2: C12-N93H (antibody, human IgG4 S228P, kappa, V domains shown)
VH: B1 VH
VL: B1 VL with N93H
B3: C12 Fab with the Asn residue in CDRL3 replaced with R (Fab, V domains shown)
VH: B1 VH
VL: B1 VL with N93R
notes: Periprep Fab
B4: C12 Fab with the Asn residue in CDRL3 replaced with alanine (Fab, V domains shown)
VH: B1 VH
VL: B1 VL with N93A
notes: Periprep Fab
B5: C12 Fab with the Asn residue in CDRL3 replaced with aspartic acid (Fab, V domains shown)
VH: B1 VH
VL: B1 VL with N93D
notes: Periprep Fab
B6: C12 Fab with the Asn residue in CDRL3 replaced with cysteine (Fab, V domains shown)
VH: B1 VH
VL: B1 VL with N93C
notes: Periprep Fab
B7: C12 Fab with the Asn residue in CDRL3 replaced with glutamic acid (Fab, V domains shown)
VH: B1 VH
VL: B1 VL with N93E
notes: Periprep Fab
B8: C12 Fab with the Asn residue in CDRL3 replaced with glutamine (Fab, V domains shown)
VH: B1 VH
VL: B1 VL with N93Q
notes: Periprep Fab
B9: C12 Fab with the Asn residue in CDRL3 replaced with glycine (Fab, V domains shown)
VH: B1 VH
VL: B1 VL with N93G
notes: Periprep Fab
B10: C12 Fab with the Asn residue in CDRL3 replaced with isoleucine (Fab, V domains shown)
VH: B1 VH
VL: B1 VL with N93I
notes: Periprep Fab
B11: C12 Fab with the Asn residue in CDRL3 replaced with leucine (Fab, V domains shown)
VH: B1 VH
VL: B1 VL with N93L
notes: Periprep Fab
B12: C12 Fab with the Asn residue in CDRL3 replaced with lysine (Fab, V domains shown)
VH: B1 VH
VL: B1 VL with N93K
notes: Periprep Fab
B13: C12 Fab with the Asn residue in CDRL3 replaced with methionine (Fab, V domains shown)
VH: B1 VH
VL: B1 VL with N93M
notes: Periprep Fab
B14: C12 Fab with the Asn residue in CDRL3 replaced with phenylalanine (Fab, V domains shown)
VH: B1 VH
VL: B1 VL with N93F
notes: Periprep Fab
B15: C12 Fab with the Asn residue in CDRL3 replaced with proline (Fab, V domains shown)
VH: B1 VH
VL: B1 VL with N93P
notes: Periprep Fab
B16: C12 Fab with the Asn residue in CDRL3 replaced with serine (Fab, V domains shown)
VH: B1 VH
VL: B1 VL with N93S
notes: Periprep Fab
B17: C12 Fab with the Asn residue in CDRL3 replaced with threonine (Fab, V domains shown)
VH: B1 VH
VL: B1 VL with N93T
notes: Periprep Fab
B18: C12 Fab with the Asn residue in CDRL3 replaced with tryptophan (Fab, V domains shown)
VH: B1 VH
VL: B1 VL with N93W
notes: Periprep Fab
B19: C12 Fab with the Asn residue in CDRL3 replaced with tyrosine (Fab, V domains shown)
VH: B1 VH
VL: B1 VL with N93Y
notes: Periprep Fab
B20: C12 Fab with the Asn residue in CDRL3 replaced with valine (Fab, V domains shown)
VH: B1 VH
VL: B1 VL with N93V
notes: Periprep Fab

Key:
mature myostatin [1] = biological target: T1, mature myostatin; test: cell-based or functional assay
mature myostatin [2] = biological target: T1, mature myostatin; test: ELISA on plate-coated myostatin, periprep Fab in serial dilution, detection with goat anti-human-kappa-AP, O.D. against Fab concentration (ng/ml)
Method: (§1) ELISA plates are coated with myostatin diluted to 4 ug/ml in carbonate buffer (50 mM NaHCO₃ pH 8.3) and 50 μL added per well. Plates are covered with sealing tape and incubate overnight at 4° C. Thereafter, plates (Greiner U-bottom plates Cat #650061) are washed three times with PBS-T (0.1% Tween-20) using an automatic plate washer. 200 μL of blocking buffer (PBS+1% BSA+0.1% Tween-20) is added to every well and incubated at room temperature for one hour. Plates are washed and 50 μl of sample added per well. Samples are composed of periprep Fabs diluted in PBST/BSA starting at a 1:3 dilution and then serially diluted in half-log steps. Plates are washed and 50 μL of secondary antibody solution (1:2000 goat anti-human-kappa-AP Southern Biotech Cat # 2060-04 in PBST/BSA) is added to every well. Following an additional wash step, 100 μL of AP substrate is added per well and incubates at room temperature for about 10 minutes. The absorbance or OD at 560 nm is read. C12 or 510C2 is included on each ELISA plate as an affinity reference standard. The concentration of Fabs is determined by a quantitative ELISA using an anti-Fd antibody (Sheep anti-Fd Biodesign) to capture protein and goat anti-human-kappa-AP (Southern Biotech) to detect. A purified Fab standard is run on each plate to generate a standard curve for the concentration determinations.

mature myostatin [3] = biological target: T1, mature myostatin; test: ELISA, myostatin coated, periprep Fab titrated, anti-human-kappa-AP
Method: as §1

Binder	binding result (mature myostatin [3])	also measured
B1		IC50 in the myostatin/SBE reporter assay (luciferase, HEK293 EBNA cells) (mature myostatin [1]): ~9.59 nM
B2		IC50 in the myostatin/SBE reporter assay (luciferase, HEK293 EBNA cells) (mature myostatin [1]): ~7.03 nM
B3		binding result (mature myostatin [2]): binds
B4	binds	
B5	binds	
B6	binds	
B7	binds	
B8	binds	
B9	binds	
B10	binds	
B11	binds	
B12	binds	
B13	binds	
B14	binds	
B15	binds	
B16	binds	
B17	binds	
B18	binds	
B19	binds	
B20	binds	
